Measurements as given in publication PMC8020760, “Assembly of a dsRNA synthesizing complex: RNA-DEPENDENT RNA POLYMERASE 2 contacts the largest subunit of NUCLEAR RNA POLYMERASE IV” (Proceedings of the National Academy of Sciences of the …, 2021).

B1: recombinant NRPD1_(1–300) with His and FLAG tags, made in E. coli (domain or fragment, A. thaliana, UniProt Q9LQ02 1-300, looked up)
chain: MEDDCEELQVPVGTLTSIGFSISNNNDRDKMSVLEVEAPNQVTDSRLGLPNPDSVCRTCGSKDRKVCEGHFGVINFAYSIINPYFLKEVAALLNKICPGCKYIRKKQFQITEDQPERCRYCTLNTGYPLMKFRVTTKEVFRRSGIVVEVNEESLMKLKKRGVLTLPPDYWSFLPQDSNIDESCLKPTRRIITHAQVYALLLGIDQRLIKKDIPMFNSLGLTSFPVTPNGYRVTEIVHQFNGARLIFDERTRIYKKLVGFEGNTLELSSRVMECMQYSRLFSETVSSSKDSANPYQKKSDT
notes: NRPD1, A. thaliana, amino acids 1-300 of 1,453; More in SI Appendix, Methods; also called NRPD1_(1–300)-FLAG; FLAG-tagged NRPD1_(1–300); source: E. coli (pET28 vector), purified (nickel-NTA by the methods; by its C-terminal FLAG tag by the results); not shown: FLAG, C-terminal, kept
B2: recombinant RDR2_(771–970) with His and HA tags, made in E. coli (domain or fragment, A. thaliana, UniProt O82504 771-970, looked up)
chain: ETSVVIGKVVVTKNPCLHPGDIRVLDAIYEVHFEEKGYLDCIIFPQKGERPHPNECSGGDLDGDQFFVSWDEKIIPSEMDPPMDYAGSRPRLMDHDVTLEEIHKFFVDYMISDTLGVISTAHLVHADRDPEKARSQKCLELANLHSRAVDFAKTGAPAEMPYALKPREFPDFLERFEKPTYISESVFGKLYRAVKSSLAQ
notes: The methods give the C-terminal limit as 971, the results and legends as 970; More in SI Appendix, Methods; source: E. coli (pET28 vector), purified (nickel-NTA by the methods; anti-HA resin by the results)
B3: RDR2 peptide 11 of the RDR2_(771–970) peptide array (peptide, UniProt O82504 871-885, looked up)
peptide: EIHKFFVDYMISDTL
notes: RDR2, A. thaliana; 15-mer of the array; limits worked out from the design; holds K874; Peptides were 'typically' 15 amino acids long; source: synthetic peptide (Genscript)
B4: RDR2 peptide 10 of the RDR2_(771–970) peptide array (peptide, UniProt O82504 861-875, looked up)
peptide: RLMDHDVTLEEIHKF
notes: as for B3
B5: RDR2 peptide 12 of the RDR2_(771–970) peptide array (peptide, UniProt O82504 881-895, looked up)
peptide: ISDTLGVISTAHLVH
notes: RDR2, A. thaliana; 15-mer of the array; limits worked out from the design; Peptides were 'typically' 15 amino acids long; source: synthetic peptide (Genscript)
B6: NRPD1 peptide 10 of the NRPD1_(1–300) peptide array (peptide, UniProt Q9LQ02 91-105, looked up)
peptide: ALLNKICPGCKYIRK
notes: NRPD1, A. thaliana; 15-mer of the array; limits worked out from the design; holds a CxxC motif; Peptides were 'typically' 15 amino acids long; source: synthetic peptide (Genscript)
B7: NRPD1 peptide 13 of the NRPD1_(1–300) peptide array (peptide, UniProt Q9LQ02 121-135, looked up)
peptide: CTLNTGYPLMKFRVT
notes: NRPD1, A. thaliana; 15-mer of the array; limits worked out from the design; holds K131; Peptides were 'typically' 15 amino acids long; source: synthetic peptide (Genscript)
B8: NRPD1 peptide 12 of the NRPD1_(1–300) peptide array (peptide, UniProt Q9LQ02 111-125, looked up)
peptide: TEDQPERCRYCTLNT
notes: as for B6
B9: NRPD1 peptide 25 of the NRPD1_(1–300) peptide array (peptide, UniProt Q9LQ02 241-255, looked up)
peptide: GARLIFDERTRIYKK
notes: NRPD1, A. thaliana; 15-mer of the array; limits worked out from the design; holds K254 and K255; Peptides were 'typically' 15 amino acids long; source: synthetic peptide (Genscript)
B10: NRPD1 peptide 9 of the NRPD1_(1–300) peptide array (peptide, UniProt Q9LQ02 81-95, looked up)
peptide: INPYFLKEVAALLNK
notes: NRPD1, A. thaliana; 15-mer of the array of 30 peptides over 1-300 that overlap by 5; limits worked out from the design; Peptides were 'typically' 15 amino acids long; source: synthetic peptide (Genscript)
B11: NRPD1 peptide 24 of the NRPD1_(1–300) peptide array (peptide, UniProt Q9LQ02 231-245, looked up)
peptide: RVTEIVHQFNGARLI
notes: NRPD1, A. thaliana; 15-mer of the array; limits worked out from the design; Peptides were 'typically' 15 amino acids long; source: synthetic peptide (Genscript)
B12: NRPD1 peptide 26 of the NRPD1_(1–300) peptide array (peptide, UniProt Q9LQ02 251-265, looked up)
peptide: RIYKKLVGFEGNTLE
notes: as for B9

Molecular target: T1, recombinant RNA-DEPENDENT RNA POLYMERASE 2 (RDR2), wild type, with N-terminal V5 epitope and 6xHis tags (A. thaliana, UniProt O82504 1-1133)
T1 sequence (looked up): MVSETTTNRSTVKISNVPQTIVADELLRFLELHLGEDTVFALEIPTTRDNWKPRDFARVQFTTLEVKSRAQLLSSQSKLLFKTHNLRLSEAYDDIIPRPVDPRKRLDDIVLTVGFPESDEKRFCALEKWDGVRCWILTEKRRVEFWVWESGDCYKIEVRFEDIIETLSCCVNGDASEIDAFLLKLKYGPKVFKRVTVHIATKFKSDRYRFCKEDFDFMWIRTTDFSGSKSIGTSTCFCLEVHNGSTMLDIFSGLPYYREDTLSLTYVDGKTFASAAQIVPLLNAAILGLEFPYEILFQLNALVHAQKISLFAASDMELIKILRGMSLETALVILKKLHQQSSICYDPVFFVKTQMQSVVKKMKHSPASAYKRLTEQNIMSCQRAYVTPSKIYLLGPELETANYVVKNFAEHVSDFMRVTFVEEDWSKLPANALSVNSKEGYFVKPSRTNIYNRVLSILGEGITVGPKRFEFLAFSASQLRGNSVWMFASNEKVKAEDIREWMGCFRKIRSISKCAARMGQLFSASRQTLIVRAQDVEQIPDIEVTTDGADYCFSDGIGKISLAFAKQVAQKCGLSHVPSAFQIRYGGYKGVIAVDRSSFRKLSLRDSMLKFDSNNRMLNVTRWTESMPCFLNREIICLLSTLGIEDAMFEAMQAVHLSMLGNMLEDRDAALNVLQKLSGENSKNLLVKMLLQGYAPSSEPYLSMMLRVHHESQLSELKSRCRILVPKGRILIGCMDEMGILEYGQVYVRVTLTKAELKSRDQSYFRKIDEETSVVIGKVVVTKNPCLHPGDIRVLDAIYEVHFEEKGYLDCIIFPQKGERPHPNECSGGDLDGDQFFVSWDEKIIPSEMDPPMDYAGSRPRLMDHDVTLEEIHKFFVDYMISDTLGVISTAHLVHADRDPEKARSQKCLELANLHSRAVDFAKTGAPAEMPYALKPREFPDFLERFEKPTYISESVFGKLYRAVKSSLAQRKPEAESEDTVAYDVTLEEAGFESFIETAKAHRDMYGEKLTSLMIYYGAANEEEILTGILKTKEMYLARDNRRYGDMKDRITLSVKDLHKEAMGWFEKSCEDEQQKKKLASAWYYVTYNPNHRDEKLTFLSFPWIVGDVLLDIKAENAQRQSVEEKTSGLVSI
Experiment: co-IP; purified recombinant proteins, 0.25 µM each, 30 min, room temperature, 50 mM Hepes-KOH pH 7.5, 150 mM NaCl; IP with resin against the tag of one or the other partner (anti-FLAG, anti-V5 or anti-HA); immunoblot
Conditions: both partners purified

Binding result, binds:
B1

Molecular target: B1
Experiment: as above
Conditions: both partners purified

Binding result, binds:
B2

Molecular target: B1
Experiment: peptide or protein array; synthetic peptides (10 ng) dot-blotted onto nitrocellulose, probed with about 200 ng NRPD1_(1–300)-FLAG or RDR2_(771–970)-HA in 8 mL 50 mM Hepes-KOH pH 7.5, 100 mM NaCl, room temperature, 1 h; anti-FLAG-HRP or anti-HA-HRP, chemiluminescence
Conditions: both partners purified

Binding result, binds:
B3
B4
B5

Molecular target: B2
Experiment: as above
Conditions: both partners purified

Binding result, binds:
B6
B7
B8
B9
B10
B11
B12
